Measurements from patent publication US20110097328A1 (MIT, published 2011).

Key:
[1] = biological target: T1, PARP5A-GFP fusion protein (UniProt O95271 1-1327); assay: co-immunoprecipitation: anti-GFP IP from lysate of transfected HeLa S3 cells (0 or 20 nM pateamine A, 30 min), immunoblot with anti-LSM1
T1 construct: Expressed in HeLa S3 cells from pEGFP-C1; also called tankyrase 1-GFP; not shown: EGFP (green fluorescent protein) encoded by vector pEGFP-C1, located N-terminal (5') to the PARP
T1 sequence (looked up): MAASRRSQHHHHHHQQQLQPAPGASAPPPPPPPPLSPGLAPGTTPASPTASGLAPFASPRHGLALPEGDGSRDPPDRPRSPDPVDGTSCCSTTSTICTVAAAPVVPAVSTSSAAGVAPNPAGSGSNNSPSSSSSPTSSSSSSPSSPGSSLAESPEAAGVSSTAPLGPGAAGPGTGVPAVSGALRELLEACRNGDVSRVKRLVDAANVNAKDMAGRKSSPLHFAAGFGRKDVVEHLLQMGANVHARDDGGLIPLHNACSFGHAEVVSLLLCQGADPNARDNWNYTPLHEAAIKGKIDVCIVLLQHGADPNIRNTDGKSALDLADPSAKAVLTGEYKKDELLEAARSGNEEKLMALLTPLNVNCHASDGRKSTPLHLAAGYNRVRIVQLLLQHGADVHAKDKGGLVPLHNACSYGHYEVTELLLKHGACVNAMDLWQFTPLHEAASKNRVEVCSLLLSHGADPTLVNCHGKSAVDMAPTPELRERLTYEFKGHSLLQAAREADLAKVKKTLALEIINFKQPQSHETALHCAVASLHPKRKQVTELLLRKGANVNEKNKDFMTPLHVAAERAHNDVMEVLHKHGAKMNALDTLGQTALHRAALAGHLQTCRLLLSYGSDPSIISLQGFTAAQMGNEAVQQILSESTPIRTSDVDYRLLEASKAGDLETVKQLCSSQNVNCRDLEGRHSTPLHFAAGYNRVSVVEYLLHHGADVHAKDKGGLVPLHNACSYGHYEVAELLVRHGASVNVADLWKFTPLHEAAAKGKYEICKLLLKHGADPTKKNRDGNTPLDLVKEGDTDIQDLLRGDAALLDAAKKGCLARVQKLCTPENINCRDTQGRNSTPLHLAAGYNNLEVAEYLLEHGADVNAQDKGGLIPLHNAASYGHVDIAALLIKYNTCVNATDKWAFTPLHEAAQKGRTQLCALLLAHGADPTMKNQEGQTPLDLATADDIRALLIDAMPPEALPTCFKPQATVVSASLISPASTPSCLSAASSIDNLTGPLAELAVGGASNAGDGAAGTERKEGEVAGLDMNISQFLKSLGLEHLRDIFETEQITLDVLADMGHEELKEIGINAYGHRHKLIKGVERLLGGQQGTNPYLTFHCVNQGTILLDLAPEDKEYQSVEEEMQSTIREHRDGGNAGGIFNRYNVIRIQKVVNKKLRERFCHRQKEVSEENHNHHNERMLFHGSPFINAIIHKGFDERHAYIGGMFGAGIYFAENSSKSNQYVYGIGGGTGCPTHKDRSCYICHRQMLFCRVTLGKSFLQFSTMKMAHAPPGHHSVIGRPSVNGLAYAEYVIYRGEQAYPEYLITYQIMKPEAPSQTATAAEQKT
Protocol: (§1) FIG. 25C is a picture of several immunoblots of a 4-12% SDS-PAGE gel containing proteins immunoprecipitated with an anti-GFP antibody from lysate from HeLa S3 cells transfected with a pEGFP-C1 plasmid expressing GFP, PARP5A-GFP, PARP12-GFP, PARP13-GFP, PARP13.1-GFP, or PARP15-GFP following treatment with 0 or 20 nM pateamine A for 30 minutes. The immunoblots were developed using one of the following antibodies: anti-Agog, anti-DDX6, anti-LSM1, anti-PABP, anti-FMRP, anti-eIF1A, anti-eIF2a, anti-eIF3η, anti-eIF4A1, and anti-eIF4E.
(§2) Data from a separate set of experiments indicate that several stress granule-associated proteins bind to the PARP13-GFP, PARP12-GFP, and PARP5A-GFP fusion proteins. In these experiments, HeLa S3 cells were transfected with a pEGFP-C1 plasmid encoding a PARP13-GFP, PARP12-GFP, or PARP5A-GFP fusion protein and treated with 0 or 20 nM pateamine A for 30 minutes. Cell lysates from the cells were immunoprecipitated using an anti-GFP antibody and the immunoprecipitated proteins were electrophoresed using 4-12% SDS-PAGE. The resulting proteins were transferred to a membrane and immunoblotted using commercially-available antibodies specific for different stress granule-associated proteins: Ago2, DDX6, LSM1, PABP, FMRP, eIF1A, eIF2α, eIF3η, eIF4A1, and eIF4E.

[2] = biological target: T2, PARP12-GFP fusion protein (UniProt Q9H0J9 1-701); assay: as above
T2 construct: Expressed in HeLa S3 cells from pEGFP-C1; not shown: EGFP (green fluorescent protein) encoded by vector pEGFP-C1, located N-terminal (5') to the PARP
T2 sequence (looked up): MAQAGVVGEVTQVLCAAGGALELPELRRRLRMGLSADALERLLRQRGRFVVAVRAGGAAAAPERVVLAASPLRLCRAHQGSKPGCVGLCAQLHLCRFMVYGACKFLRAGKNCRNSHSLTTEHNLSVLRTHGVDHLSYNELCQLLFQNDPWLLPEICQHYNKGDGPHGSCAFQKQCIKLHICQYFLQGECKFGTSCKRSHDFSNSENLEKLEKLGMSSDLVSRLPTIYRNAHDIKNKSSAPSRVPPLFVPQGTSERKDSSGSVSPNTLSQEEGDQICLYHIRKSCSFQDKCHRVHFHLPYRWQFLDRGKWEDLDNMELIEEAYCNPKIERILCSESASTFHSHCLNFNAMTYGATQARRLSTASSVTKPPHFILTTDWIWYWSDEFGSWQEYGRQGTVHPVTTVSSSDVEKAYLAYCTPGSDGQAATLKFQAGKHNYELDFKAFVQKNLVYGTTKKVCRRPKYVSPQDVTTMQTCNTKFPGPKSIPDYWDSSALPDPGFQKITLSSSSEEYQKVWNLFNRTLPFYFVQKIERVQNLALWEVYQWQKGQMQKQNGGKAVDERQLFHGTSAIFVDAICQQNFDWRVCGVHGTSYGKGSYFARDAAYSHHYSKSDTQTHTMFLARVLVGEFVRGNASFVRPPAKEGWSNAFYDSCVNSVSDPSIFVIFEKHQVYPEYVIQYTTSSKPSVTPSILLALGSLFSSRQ
Protocol: as §1, §2

binding result [1]: no binding
binding result [2]: no binding
B1: LSM1 (other, human (HeLa S3 cells), UniProt O15116 1-133, looked up)
single chain: MNYMPGTASLIEDIDKKHLVLLRDGRTLIGFLRSIDQFANLVLHQTVERIHVGKKYGDIPRGIFVVRGENVVLLGEIDLEKESDTPLQQVSIEEILEEQRVEQQTKLEAEKLKVQALKDRGLSIPRADTLDEY
notes: endogenous protein in the cell lysate; member of the group m8
